Reference: patent publication US20240124586A1 (WUXI BIOLOGICS IRELAND, published 2024)

B1: W3248-U6T1.G25R-1.uIgG4.SP, bispecific anti-PD-1 x CTLA-4 (bispecific antibody)
heavy: EVQLLESGGGLVQPGGSLRLSCAASGFTFSSHAMSWVRQAPGKGLEWVSTITGGGGSIYYADSVKGRFTISRDNSKNTLYLQMNSLRAEDTAVYYCAKNRAGEGYFDYWGQGTLVTVSSASTKGPSVFPLAPCSRSTSESTAALGCLVKDYFPEPVTVSWNSGALTSGVHTFPAVLQSSGLYSLSSVVTVPSSSLGTKTYTCNVDHKPSNTKVDKRVGGGGSGGGGSQVQLVESGGGVVQPGRSLRLSCAASGFTFSSYTMHWVRQAPGKGLEWVTFISYDGNNKYYADSVKGRFTISRDNSKNTLYLQMNSLRAEDTAIYYCARTGWLGPFDYWGQGTLVTVLEDLKNVFPPEVAVFEPSEAEISHTQKATLVCLATGFYPDHVELSWWVNGKEVHSGVCTDPQPLKEQPALQDSRYALSSRLRVSATFWQNPRNHFRCQVQFYGLSENDEWTQDRAKPVTQIVSAEAWGRYGPPCPPCPAPEFLGGPSVFLFPPKPKDTLMISRTPEVTCVVVDVSQEDPEVQFNWYVDGVEVHNAKTKPREEQFNSTYRVVSVLTVLHQDWLNGKEYKCKVSNKGLPSSIEKTISKAKGQPREPQVYTLPPSQEEMTKNQVSLTCLVKGFYPSDIAVEWESNGQPENNYKTTPPVLDSDGSFFLYSRLTVDKSRWQEGNVFSCSVMHEALHNHYTQKSLSLSLG
light 1: SYELTQPLSVSVALGQTARITCGGDNIGNKDVHWYQQKPGQAPVLVIYRDSNRPSGIPEGFSGSNSGNTATLTISRAQAGDEADYYCQVWDSIWVFGGGTKLTVLGQPKAAPSVTLFPPSSEELQANKATLVCLISDFYPGAVTVAWKADSSPVKAGVETTTPSKQSNNKYAASSYLSLTPEQWKSHKSYSCQVTHEGSTVEKTVAPTECS
light 2: not shown
notes: IgG4 (S228P); also called U6T1.G25R.IgG4
B2: W3248-U6T5.G25-1.uIgG4.SP, bispecific anti-PD-1 x CTLA-4 (bispecific antibody)
heavy: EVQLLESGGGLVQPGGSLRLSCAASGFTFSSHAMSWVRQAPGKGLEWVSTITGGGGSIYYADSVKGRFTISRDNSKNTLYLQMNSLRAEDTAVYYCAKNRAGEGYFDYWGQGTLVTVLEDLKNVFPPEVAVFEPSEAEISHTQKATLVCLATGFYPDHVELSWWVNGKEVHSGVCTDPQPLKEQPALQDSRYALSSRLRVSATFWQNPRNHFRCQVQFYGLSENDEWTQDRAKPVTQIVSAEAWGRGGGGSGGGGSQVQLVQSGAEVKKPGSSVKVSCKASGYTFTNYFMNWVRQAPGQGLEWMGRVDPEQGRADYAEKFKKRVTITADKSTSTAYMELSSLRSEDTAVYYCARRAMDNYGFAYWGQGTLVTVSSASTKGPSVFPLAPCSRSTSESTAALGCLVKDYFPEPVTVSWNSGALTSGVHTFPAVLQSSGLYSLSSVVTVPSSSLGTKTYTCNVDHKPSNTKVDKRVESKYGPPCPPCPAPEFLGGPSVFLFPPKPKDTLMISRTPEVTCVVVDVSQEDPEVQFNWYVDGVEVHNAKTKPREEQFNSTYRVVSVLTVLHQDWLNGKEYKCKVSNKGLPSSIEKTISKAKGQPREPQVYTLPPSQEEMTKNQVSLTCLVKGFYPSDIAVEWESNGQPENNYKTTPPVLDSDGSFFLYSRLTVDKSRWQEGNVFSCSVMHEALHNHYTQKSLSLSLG
light 1: SYELTQPLSVSVALGQTARITCGGDNIGNKDVHWYQQKPGQAPVLVIYRDSNRPSGIPEGFSGSNSGNTATLTISRAQAGDEADYYCQVWDSIWVFGGGTKLTVLPDIQNPDPAVYQLRDSKSSDKSVCLFTDFDSQTQVSQSKDSDVYITDKCVLDMRSMDFKSNSAVAWSQKSDFACANAFQNSIIPEDTFFPSPESS
light 2: EIVLTQSPDFQSVTPKEKVTITCSANSALSYMYWYQQKPDQSPKLWVHGTSNLASGVPSRFSGSGSGTDFTLTINSLEAEDAATYYCHHWSNTQWTFGGGTKVEIKRTVAAPSVFIFPPSDEQLKSGTASVVCLLNNFYPREAKVQWKVDNALQSGNSQESVTEQDSKDSTYSLSSTLTLSKADYEKHKVYACEVTHQGLSSPVTKSFNRGEC
notes: IgG4 (S228P); also called WBP3248-U6T5.G25-1-uIgG4.SP; U6T5.G25.IgG4
B3: W3438-T3U4.E17-1.uIgG4.SP, bispecific anti-CD3 x CD19 (bispecific antibody)
heavy 1: QVQLVQSGAEVKKPGSSVKVSCKASGFAFTDYYIHWVRQAPGQGLEWMGWISPGNVNTKYNENFKGRVTITADKSTSTAYMELSSLRSEDTAVYYCARDGYSLYYFDYWGQGTLVTVLEDLKNVFPPEVAVFEPSEAEISHTQKATLVCLATGFYPDHVELSWWVNGKEVHSGVCTDPQPLKEQPALQDSRYALSSRLRVSATFWQNPRNHFRCQVQFYGLSENDEWTQDRAKPVTQIVSAEAWGRYGPPCPPCPAPEFLGGPSVFLFPPKPKDTLMISRTPEVTCVVVDVSQEDPEVQFNWYVDGVEVHNAKTKPREEQFNSTYRVVSVLTVLHQDWLNGKEYKCKVSNKGLPSSIEKTISKAKGQPREPQVYTLPPCQEEMTKNQVSLWCLVKGFYPSDIAVEWESNGQPENNYKTTPPVLDSDGSFFLYSRLTVDKSRWQEGNVFSCSVMHEALHNHYTQKSLSLSLGK
light 1: DIVMTQSPDSLAVSLGERATINCKSSQSLLNSRTRKNYLAWYQQKPGQPPKLLIYWASTRQSGVPDRFSGSGSGTDFTLTISSLQAEDVAVYYCTQSHTLRTFGGGTKVEIKPDIQNPDPAVYQLRDSKSSDKSVCLFTDFDSQTQVSQSKDSDVYITDKCVLDMRSMDFKSNSAVAWSQKSDFACANAFQNSIIPEDTFFPSPESS
heavy 2: QMQLVQSGPEVKKPGTSVKVSCKASGYAFTSYNMYWVRQARGQRLEWIGYIDPYNGDTTYNQKFKGRVTITRDMSTSTAYMELSSLRSEDTAVYYCLTTAYAMDYWGQGTLVTVSSASTKGPSVFPLAPCSRSTSESTAALGCLVKDYFPEPVTVSWNSGALTSGVHTFPAVLQSSGLYSLSSVVTVPSSSLGTKTYTCNVDHKPSNTKVDKRVESKYGPPCPPCPAPEFLGGPSVFLFPPKPKDTLMISRTPEVTCVVVDVSQEDPEVQFNWYVDGVEVHNAKTKPREEQFNSTYRVVSVLTVLHQDWLNGKEYKCKVSNKGLPSSIEKTISKAKGQPREPQVCTLPPSQEEMTKNQVSLSCAVKGFYPSDIAVEWESNGQPENNYKTTPPVLDSDGSFFLVSRLTVDKSRWQEGNVFSCSVMHEALHNHYTQKSLSLSLGK
light 2: DIQLTQSPSFLSASVGDRVTITCSASSTVNYMHWYQQKPGKAPKLLIYSTSNLASGVPSRFSGSGSGTEFTLTISSLQPEDFATYYCHQWSSYPYTFGQGTKLEIKRTVAAPSVFIFPPSDEQLKSGTASVVCLLNNFYPREAKVQWKVDNALQSGNSQESVTEQDSKDSTYSLSSTLTLSKADYEKHKVYACEVTHQGLSSPVTKSFNRGEC
notes: also called E17-Design_2-QQQQ (IgG4); E17-IgG4; copies: 1 + 1 + 1 + 1

Experiments:
[1] = target: T1, cynomolgus CTLA-4 on engineered 293F cells (W316-293F.cynoPro1.F1.Pool) (cynomolgus); assay: FACS binding to cynomolgus CTLA-4 engineered cells
T1 construct: whole, on cells; also called cynomolgus CTLA-4 engineered cells
Protocol: (§1) 4-fold titrated Abs with 1% BSA DPBS from 40 μg/ml to 0.00004 μg/ml were added to the cells. Plates were incubated at 4° C. for 1 hour. After wash, […] 1:150 diluted PE-labeled goat anti-human antibody (Jackson 109-115-098) was added to each well and the plates were incubated at 4° C. for 1 hour. The binding of the antibodies onto the cells was tested by flow cytometry and the mean fluorescence intensity (MFI) was analyzed by FlowJo.

[2] = target: T2, cynomolgus PD-1 on engineered 293F cells (W305-293F.cynoPro1.FL.pool) (cynomolgus); assay: FACS binding to cynomolgus PD-1 engineered cells
T2 construct: whole, on cells; also called cynomolgus PD-1 engineered cells
Protocol: as §1, with “4.0-fold” for “4-fold”, “0.0001526” for “0.00004”

[3] = target: T3, ECD of human PD-1 (SPR analyte) (human, UniProt Q15116 25-170); assay: SPR (Biacore), antibody captured as ligand on an anti-human IgG Fc chip, PD-1 ECD as analyte
T3 construct: extracellular domain; the SPR method only says ECD of PD-1; also called W305-hPro1.ECD.His
T3 sequence (Q15116 25-170): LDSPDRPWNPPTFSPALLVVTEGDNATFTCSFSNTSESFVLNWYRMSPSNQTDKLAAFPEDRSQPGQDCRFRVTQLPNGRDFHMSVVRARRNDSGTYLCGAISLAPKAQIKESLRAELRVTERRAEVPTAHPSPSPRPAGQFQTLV
Protocol: SPR technology was used to measure the on-rate constant (ka) and off-rate constant (kd) of the antibodies to ECD of CTLA-4 or PD-1. The affinity constant (KD) was consequently determined.
Biacore T200, Series S Sensor Chip CM5, Amine Coupling Kit, and 10×HBS-EP were purchased from GE Healthcare. Goat anti-human IgG Fc antibody was purchased from Jackson ImmunoResearch Lab (catalog number 109-005-098). In immobilization step, the activation buffer was prepared by mixing 400 mM EDC and 100 mM NHS immediately prior to injection. The CM5 sensor chip was activated for 420 s with the activation buffer. 30 μg/mL of goat anti-human IgG Fcγ antibody in 10 mM NaAc (pH 4.5) was then injected to Fc1-Fc4 channels for 200 s at a flow rate of 5 μL/min. The chip was deactivated by 1 M ethanolamine-HCl (GE). Then the antibodies were captured on the chip. Briefly, 4 μg/mL antibodies in running buffer (HBS-EP+) was injected individually to Fc3 channel for 30 s at a flow rate of […]. […] Regeneration buffer (10 mM Glycine pH 1.5) was injected at 10 μL min for 30 s following every dissociation phase.

[4] = target: T4, human CD3 on CD3+ Jurkat cells (human, UniProt P07766 23-207; P09693 23-182; P04234 22-171); assay: affinity by flow cytometry on Jurkat cells (bound/free versus bound)
T4 construct: whole, on cells; also called CD3 positive Jurkat cells
T4 sequence (P07766 23-207, chain 1 of 3): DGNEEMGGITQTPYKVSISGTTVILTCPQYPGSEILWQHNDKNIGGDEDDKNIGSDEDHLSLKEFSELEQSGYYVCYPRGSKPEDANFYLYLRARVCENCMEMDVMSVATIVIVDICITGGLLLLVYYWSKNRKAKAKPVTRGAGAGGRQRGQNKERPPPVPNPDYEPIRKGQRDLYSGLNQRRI
T4 sequence (P09693 23-182, chain 2 of 3): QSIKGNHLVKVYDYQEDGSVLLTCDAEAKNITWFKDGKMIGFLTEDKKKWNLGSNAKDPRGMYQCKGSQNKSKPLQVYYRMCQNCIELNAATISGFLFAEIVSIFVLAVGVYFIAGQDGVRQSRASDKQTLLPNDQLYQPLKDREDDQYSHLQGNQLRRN
T4 sequence (P04234 22-171, chain 3 of 3): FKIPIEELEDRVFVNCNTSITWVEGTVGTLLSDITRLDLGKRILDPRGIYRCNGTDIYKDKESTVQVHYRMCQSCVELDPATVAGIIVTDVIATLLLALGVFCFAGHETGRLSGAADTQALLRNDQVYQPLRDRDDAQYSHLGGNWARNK
Protocol: Binding affinity to CD3 and CD19 was determined by flow cytometry using Jurkat and Ramos cells, respectively. The cells were transferred in to 96-well U-bottom plates (BD) at a density of 5×10⁴ cells/well. Antibodies to be tested were 1:2-fold serially diluted in 1% 1×PBS/1% BSA and incubated with cells at 4° C. for 1 hr. Then, the plates were centrifuged at 1500 rpm for 4 mins and the supernatant discarded. […] The cells were washed once and re-suspended in 100 μL 1×PBS/1% BSA. Fluorescence intensity was measured by flow cytometry (BD Canto II) and analyzed by FlowJo. Fluorescence intensity was converted to bound molecules/cell based on the quantitative beads (Quantum™ MESF Kits, Bangs Laboratories). KD was calculated by Graphpad Prism5.
The bound IgG/free IgG versus bound IgG was plotted in FIGS. 46A and 46B.

[5] = target: T5, human CD19 on CD19+ B cell lines (Ramos, Raji) (human, UniProt P15391 20-556); assay: flow cytometry on Ramos cells
T5 construct: whole, on cells; also called CD19+ Ramos cells; CD19+ Raji cells
T5 sequence (looked up): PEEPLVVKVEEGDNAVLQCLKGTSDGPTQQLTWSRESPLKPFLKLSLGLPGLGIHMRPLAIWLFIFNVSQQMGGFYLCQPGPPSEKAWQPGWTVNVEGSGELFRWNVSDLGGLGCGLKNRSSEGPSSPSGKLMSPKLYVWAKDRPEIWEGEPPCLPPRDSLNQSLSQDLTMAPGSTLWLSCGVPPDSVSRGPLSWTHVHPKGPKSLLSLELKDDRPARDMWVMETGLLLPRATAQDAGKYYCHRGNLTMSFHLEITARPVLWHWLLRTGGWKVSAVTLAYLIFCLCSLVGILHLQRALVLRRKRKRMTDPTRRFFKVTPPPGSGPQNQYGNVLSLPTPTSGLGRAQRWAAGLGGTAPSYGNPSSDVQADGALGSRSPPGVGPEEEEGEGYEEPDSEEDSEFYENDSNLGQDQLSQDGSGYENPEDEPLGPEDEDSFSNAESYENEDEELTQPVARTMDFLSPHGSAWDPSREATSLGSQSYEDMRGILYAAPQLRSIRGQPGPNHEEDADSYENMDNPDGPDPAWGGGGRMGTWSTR

FcRn = target: T6, FcRn (UniProt P55899 24-297; P61769 21-119, limits assumed); assay: SPR at pH 6.0, antibody immobilized, FcRn injected, steady state model; pH 6.0
T6 construct: a molecular weight of 45 kDa was used
T6 sequence (P55899 24-297 limits assumed, chain 1 of 2): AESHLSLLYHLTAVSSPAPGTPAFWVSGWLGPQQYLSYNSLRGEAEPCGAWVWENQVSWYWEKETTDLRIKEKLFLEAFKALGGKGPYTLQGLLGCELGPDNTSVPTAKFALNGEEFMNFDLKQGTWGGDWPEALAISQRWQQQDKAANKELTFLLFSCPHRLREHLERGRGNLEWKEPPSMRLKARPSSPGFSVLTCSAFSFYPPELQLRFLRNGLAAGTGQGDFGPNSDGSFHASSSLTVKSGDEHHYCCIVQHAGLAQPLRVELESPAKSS
T6 sequence (P61769 21-119 limits assumed, chain 2 of 2): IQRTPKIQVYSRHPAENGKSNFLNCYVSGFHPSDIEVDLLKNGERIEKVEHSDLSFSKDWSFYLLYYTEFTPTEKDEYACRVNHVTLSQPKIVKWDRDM
Protocol: Antibody binding affinity to FcRn was detected using Biacore T200 (or Biacore 8K). Each antibody was immobilized on CM5 sensor chip (GE). FcRn at different concentrations in running buffer (50 mM Na2HPO4/NaH2PO4, 150 mM NaCl, 0.05% Tween20, pH 6.0) were injected over the sensor chip at a flow rate of 30 uL/min for an association phase of 60 s, followed by 60 s dissociation. The chip was then regenerated by 1×PBS (pH 7.4) after each binding cycle.

Binder	EC50 [1]	Top(MFI) [1]	EC50 [2]	Top(MFI) [2]	koff [3]	kon [3]	Kd [4]	EC50 [5]	Kd (FcRn)
B1	5.87 nM	6650 MFI	4.71 nM	66800 MFI	0.000675 s⁻¹	542000 M⁻¹ s⁻¹	–	–	–
B2	1.45 nM	11200 MFI	5.13 nM	68100 MFI	0.000844 s⁻¹	642000 M⁻¹ s⁻¹	–	–	–
B3	–	–	–	–	–	–	9 nM	15.6 nM	2580 nM
